From the supplement of paper PMC10567573

B1: FCHSD1 (parent)
chain: LEAAEVILEHAHRGEQTTSQVSWE

Variants of: B1
Assay: protein stability index of a GFP-peptide fusion (GPS, HEK-293T) (PSI 1-6); higher = more stable
Settings: c terminus: a fixed tail appended
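Note: lentivirally expressed fusions sorted by FACS into six bins by GFP to DsRed ratio, PSI derived from sequencing read proportions per bin multiplied by bin number.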

Variant | protein stability index
LEAAEVILEHAHDGEQTTSQVSWE [R13D] | 4.67
LEAAEVILEHAHCGEQTTSQVSWE [R13C] | 3.5
LEAAEVILEHAHGGEQTTSQVSWE [R13G] | 5.25
LEAAEVILEHAHIGEQTTSQVSWE [R13I] | 4.11
LEAAEVILEHAHWGEQTTSQVSWE [R13W] | 3.27
LEAAEVILEHAHKGEQTTSQVSWE [R13K] | 4.1
LEAAEVILEHAHYGEQTTSQVSWE [R13Y] | 3.44
LEAAEVILEHAHVGEQTTSQVSWE [R13V] | 4.93
LEAAEVILEHAHPGEQTTSQVSWE [R13P] | 4.9
LEAAEVILEHAHMGEQTTSQVSWE [R13M] | 4.27
LEAAEVILEHAHSGEQTTSQVSWE [R13S] | 4.24
LEAAEVILEHAHHGEQTTSQVSWE [R13H] | 4.6
LEAAEVILEHAHAGEQTTSQVSWE [R13A] | 4.58
LEAAEVILEHAHLGEQTTSQVSWE [R13L] | 4.13
LEAAEVILEHAHQGEQTTSQVSWE [R13Q] | 4.41
LEAAEVILEHAHNGEQTTSQVSWE [R13N] | 4.63
LEAAEVILEHAHTGEQTTSQVSWE [R13T] | 4.58
LEAAEVILEHAHRGEQTASQVSWE [T18A] | 3.72
LEAAEVILEHAHRGEQTCSQVSWE [T18C] | 4.45
LEAAEVILEHAHRGEQTDSQVSWE [T18D] | 4.74
LEAAEVILEHAHRGEETTSQVSWE [Q16E] | 4.88
LEAAEVILEHAHRGESTTSQVSWE [Q16S] | 4.4
LEAAEVILEHAHRGENTTSQVSWE [Q16N] | 3.97
LEAAEVILEHAHRGEDTTSQVSWE [Q16D] | 4.9

Variant | protein stability index
LEAAEVILEHAHRGECTTSQVSWE [Q16C] | 2.73
LEAAEVILEHAHRGELTTSQVSWE [Q16L] | 2.92
LEAAEVILEHAHRGETTTSQVSWE [Q16T] | 4.33
LEAAEVILEHAHRGERTTSQVSWE [Q16R] | 4.14
LEAAEVILEHAHRGEGTTSQVSWE [Q16G] | 4.42
LEAAEVILEHAHRGEKTTSQVSWE [Q16K] | 4.24
LEAAEVILEHAHRGEFTTSQVSWE [Q16F] | 3.53
LEAAEVILEHAHRGEATTSQVSWE [Q16A] | 4.41
LEAAEVILEHAHRGEITTSQVSWE [Q16I] | 3.98
LEAAEVILEHAHRGEVTTSQVSWE [Q16V] | 4.13
LEAAEVILEHAHRGEYTTSQVSWE [Q16Y] | 3.69
LEAAEVILEHAHRGEMTTSQVSWE [Q16M] | 3.57
LEAAEVILEHAHRGEPTTSQVSWE [Q16P] | 4.05
LEAAEVILEHAHRGEHTTSQVSWE [Q16H] | 4.05
LEAAEVILEHAPRGEQTTSQVSWE [H12P] | 4.43
LEAAEVILEHAERGEQTTSQVSWE [H12E] | 4.92
LEAAEVILEHATRGEQTTSQVSWE [H12T] | 4.11
LEAAEVILEHASRGEQTTSQVSWE [H12S] | 4.77
LEAAEVILEHANRGEQTTSQVSWE [H12N] | 4.55
LEAAEVILEHADRGEQTTSQVSWE [H12D] | 4.04
LEAAEVILEHAKRGEQTTSQVSWE [H12K] | 4.07
LEAAEVILEHAARGEQTTSQVSWE [H12A] | 4.23
LEAAEVILEHAFRGEQTTSQVSWE [H12F] | 2.87
LEAAEVILEHAMRGEQTTSQVSWE [H12M] | 3.79

Variant | protein stability index
LEAAEVILEHAIRGEQTTSQVSWE [H12I] | 4.25
LEAAEVILEHAYRGEQTTSQVSWE [H12Y] | 4.09
LEAAEVILEHYHRGEQTTSQVSWE [A11Y] | 3.47
LEAAEVILEHAHRGDQTTSQVSWE [E15D] | 4.22
LEAAEVILEHAHRGHQTTSQVSWE [E15H] | 3.87
LEAAEVILEHAHRGIQTTSQVSWE [E15I] | 3.31
LEAAEVILEHAHRGVQTTSQVSWE [E15V] | 2.6
LEAAEVILEHAHRGNQTTSQVSWE [E15N] | 4.7
LEAAEVILEHAHRGFQTTSQVSWE [E15F] | 2.31
LEAAEVILEHAHRGRQTTSQVSWE [E15R] | 3.87
LEAAEVILEHAHRGLQTTSQVSWE [E15L] | 2.81
LEAAEVILEHAHRGWQTTSQVSWE [E15W] | 2.2
LEAAEVILEHAHRGAQTTSQVSWE [E15A] | 3.79
LEAAEVILEHAHRGKQTTSQVSWE [E15K] | 3.46
LEAAEVILEHAHRGQQTTSQVSWE [E15Q] | 3.5
LEAAEVILEHAHRPEQTTSQVSWE [G14P] | 4.29
LEAAEVILEHAHRREQTTSQVSWE [G14R] | 4.19
LEAAEVILEHAHREEQTTSQVSWE [G14E] | 4.53
LEAAEVILEHAHRCEQTTSQVSWE [G14C] | 4.2
LEAAEVILEHAHRVEQTTSQVSWE [G14V] | 3.47
LEAAEVILEHAHRHEQTTSQVSWE [G14H] | 4.28
LEAAEVILEHAHRLEQTTSQVSWE [G14L] | 3.76
LEAAEVILEHAHRYEQTTSQVSWE [G14Y] | 3.64
LEAAEVILEHAHRTEQTTSQVSWE [G14T] | 4.21

Variant | protein stability index
LEAAEVILEHAHRIEQTTSQVSWE [G14I] | 3.85
LEAAEVILEHAHRMEQTTSQVSWE [G14M] | 3.45
LEAAEVILEHAHRNEQTTSQVSWE [G14N] | 4.53
LEAAEVILEHAHRSEQTTSQVSWE [G14S] | 4.46
LEAAEVILEHAHRQEQTTSQVSWE [G14Q] | 4.63
LEAAEVILEHAHRDEQTTSQVSWE [G14D] | 4.68
LEAAEVILEHAHRFEQTTSQVSWE [G14F] | 2.88
LEAAEVILEHAHRAEQTTSQVSWE [G14A] | 4.55
LEAAEVILEHAHRGEQATSQVSWE [T17A] | 4.2
LEAAEVILEHAHRGEQYTSQVSWE [T17Y] | 3.32
LEAAEVILEHAHRGEQCTSQVSWE [T17C] | 4.51
LEAAEVILEHAHRGEQVTSQVSWE [T17V] | 4.37
LEAAEVILEHAHRGEQNTSQVSWE [T17N] | 4.39
LEAAEVILEHAHRGEQMTSQVSWE [T17M] | 3.85
LEAAEVILEHAHRGEQSTSQVSWE [T17S] | 4.77
LEAAEVILEHAHRGEQQTSQVSWE [T17Q] | 4.51
LEAAEVILEHAHRGEQGTSQVSWE [T17G] | 4.84
LEAAEVILEHAHRGEQLTSQVSWE [T17L] | 2.78
LEAAEVILEHAHRGEQWTSQVSWE [T17W] | 3.54
LEAAEVILEHAHRGEQHTSQVSWE [T17H] | 3.99
LEAAEVILEHAHRGEQPTSQVSWE [T17P] | 4.14
LEAAEVILEHAHRGEQETSQVSWE [T17E] | 5.06
